Results on 1 molecule are retold here after patent US20050048614A1, “Biosynthetic oncolytic molecules and uses therefor” (Children's Medical Center Corporation, priority 2000, published 2005).

In one series the test system is MDA-MB-231 tumor cells. Put plainly: tubulin staining by indirect fluorescent immunochemistry. The conditions noted are these: induced with 3 μg/ml Doxycycline, six hours; versus uninduced infected cells. Format: cell-based, human. How it is done:
Oncolysin 1-infected MDA-MB-231 tumor cells were induced with 3 μg/ml of Doxycycline. After six hours, the cells were fixed in 10% formaldehyde then stained for tubulin using indirect fluorescent immunochemistry.

The next series concerns microtubules. In words: effect on microtubules in treated cells. Format: cell-based. From the text:
Based on a detailed understanding of the functional domains of osteopontin and an understanding of the role this multifunctional cytokine plays in the regulation of cellular apoptosis, biosynthetic molecules which mimic distinct functions of osteopontin are provided for use in a variety of therapeutic applications, in particular, in the treatment of cancer and inflammatory conditions such as arthritis. In particular, the biosynthetic molecules are useful in the elimination of abnormal or unwanted cells that express at least an integrin receptor and/or that co-express both an integrin and a CD44 receptor. Many of the biosynthetic molecules/peptides disclosed herein are believed to uncouple integrin signaling form CD 44 signaling, resulting in the stabilization of microtubules by down stream activation of rhoB. […] Cells treated with these molecules organize the arrays of disorganized microtubules into parallel bundles and freeze the normal, microtubular, mitotic bundle. As a result, the treated cells form several more asters at various locations with the cell, serving to further strengthen the cell's structure and preventing cell separation.
Many of the biosynthetic molecules/peptides disclosed herein are believed to uncouple integrin signaling form CD 44 signaling. […] Cells treated with these molecules organize the arrays of disorganized into parallel bundles and freeze the normal, microtubular, mitotic bundle. As a result, the treated cells form several more asters at various locations with the cell, serving to further strengthen the cell's structure and preventing cell separation.

Another series concerns MDA-MB-231 cells. In words: FragEL apoptotic assay in cells infected with pRetro-oncolysin and induced with Doxycycline. As to conditions: 48 h after infection, induced with 3 ug Doxycycline for 6 hours; versus uninduced cells. Format: cell-based, human. How it is done:
50,000 Breast tumor cells were infected with approximately 500,000 viral particles in DME+10% FBS containing 4 μg/ml polybrene. After 48 h., the MDA-MB-231 cells were induced with 3 ug of Doxycycline for 6 hours in defined media. Apoptosis was assessed using the FragEL™ apoptotic assay. Uninduced cells are viable and labeled blue when viewed at 10× magnification under a light microscope. […] Each experiment was performed in duplicates and repeated 3 times.

A further series relates to SHP-1. In words: signal transduction pathway in infected cells (FIG. 3), SHP-1. Format: cell-based. The conditions noted are these: infected cells compared to control cells. From the text:
(§1) FIG. 3 depicts an alteration in the signal transduction pathway in cells infected with oncolysin 1/Sophin C as compared to control cells.

The next series has as its system MDA-MB-231 xenografts. Put plainly: MDA-MB-231 xenograft tumor growth in nude mice (FIG. 4). Format: in vivo. The conditions noted are these: for tumor volume: compared to controls. As for the experimental part: To evaluate the effectiveness of oncolysin 1/Sophin C against primary tumor growth and metastasis, 1×10^7 MDA-MB-231 breast cancer cells were injected subcutaneously into the left flank of nude mice. After six weeks the resulting tumors were aseptically dissected out, minced and 1 mm-tumor pieces were transplanted into the right flank of nude mice using a trocar needle. One weeks later, when tumors measured approximately 10 mm, mice were assigned to different experimental groups. One set of 24 animals bearing MDA-MB-231 xenografts were divided into 3 groups that received the following treatments: A first group of 8 animals were injected with pRetro-oncolysin (1×10^6 viral particles). After one day and weekly thereafter (for 3 weeks) these animals received a weekly injection of the inducing agent Doxycyxlin (1 mg/kg) through the peritoneal cavity. A second group of 8 animals received a weekly injection of Doxycyclin (uninfected tumors) and a third group received a weekly injection of oncolysin protein (10 μg/kg). In another set of experiments, the pRetro-oncolysin was injected into the marrow stroma of tumor bearing mice. After, day one, the animals were treated as above, with weekly injection of Doxycyclin. Tumors were measured once every two days with microcalipers, and tumor volume was calculated as length×width×height×0.5236. Body weight was measured on the day of the injection, 4 days later and weekly thereafter. Four days after the first injection, blood samples were collected from the tail vein using the Unopette™ micro-collection kit. Total leukocyte and platelet counts were determined manually using a hemocytometer. Blood smears stained with the Hema3™ kit were used for assessing absolute numbers of granulocytes and lymphocytes. Treatment-related toxicity was evaluated based on the differences in body weight, liver and kidney marker enzymes, and hematological parameters between treatment groups. 20 weeks after treatment, animals were killed by decapitation under anesthesia. […] Liver, heart, uterus, ovaries, lungs spinal cord and all long bones were evaluated histologically.

Series [1] deals with metastatic tumor cell line. Put plainly: apoptosis assay, flow cytometric analysis of propidium iodide uptake. Format: cell-based. The conditions noted are these: apoptosis assays. From the text: A first generation osteopontin-derived biosynthetic molecule, oncolysin N, was engineered based on the isolation of a domain of osteopontin sufficient to impart pro-apoptotic activity when isolated away from the naturally-occurring osteopontin polypeptide. In particular, the oncolysin N molecule was designed to include the following domains: (1) a signal sequence (i.e., signal peptide), derived in this instance from the native osteopontin amino acid sequence (i.e., amino acids 1-16 of the human osteopontin-B amino acid sequence set forth as SEQ ID NO:1); (2) a golgi processing domain derived from the native osteopontin amino acid sequence (i.e., amino acids 17-30 of the human osteopontin-B amino acid sequence set forth as SEQ ID NO:1); (3) a pro-apoptotic domain comprising contiguous amino acid residues of human osteopontin-B sufficient to induce apoptosis (i.e., amino acids 147-170 of the human osteopontin-B amino acid sequence set forth as SEQ ID NO:1) yet lacking additional osteopontin-B sequences which are unnecessary for apoptotic activity, or alternatively decrease pro-apoptotic activity, of the biosynthetic molecule; and (4) two linker domains, a first linker domain operably linking the signal sequence to the golgi processing domain, and a second linker domain operably linking the golgi processing domain to the pro-apoptotic domain. The signal sequence and golgi processing domain optimize synthesis, processing through the golgi and secretion of the biosynthetic oncolysin N molecule. […]
Cells are grown in culture and treated with varying doses of exogenous oncolysin N. Apoptosis is determined by flow cytometric analysis according to the uptake of propidium iodide. […] DNA cleavage in apoptotic cells is assessed by flow cytometric analysis, as cells containing hypodiploid nuclei bind less propidium iodide than intact nuclei.
Cellular apoptosis can also be determined using standard criteria in the art such as nuclear condensation, chromatin fragmentation, and viability as assessed by Trypan blue exclusion. […]

The test system of series [2] is MDA-MB-231 Human Breast Cancer Cell. Put plainly: nuclear stain (H and E) of infected cells. Format: cell-based. As to conditions: with or without doxycyclin induction for six hours. From the text:
Infected cells were stained with H and E without induction with doxycyclin or after induction for six hours.

In a further series the test system is PI-3 kinase. Put plainly: signal transduction pathway in infected cells (FIG. 3), PI-3 kinase. The conditions noted are these: infected cells compared to control cells. Format: cell-based.
Description: as §1

Series [3] has as its system breast, prostate and uterine tumors. In words: tumor growth in breast, prostate and uterine tumor models, dose response (FIG. 5). Format: in vivo. How it is done:
The effect of Sophin C on tumor growth was evaluated for three tumor types, breast, prostate and uterine.

B1: oncolysin 1/Sophin C: second generation molecule: oncolysin N with synthetic heparin binding domain (RSKK and RGRR) at the C terminus; 71mer (protein)
chain: MRIAVICFCLLGITCAGGGPGIPVKQADSGSSEEKGGGPGTPVVPTVDTYDGRGDSVVYGLRSKKAARGRR
In the case of B1, the tubulin staining entry in the series on MDA-MB-231 tumor cells is “stabilized tubulin around multi-nuclei”. Also, the capping of microtubules result in the series on microtubules was “inhibit the capping of microtubules”. In the series with microtubules, the polymerization of microtubules entry is “induces their unidirectional polymerization”. Further, the “apoptosis (FragEL staining)” value in the series on MDA-MB-231 cells was “undergo apoptosis”. Besides, the SHP-1 protein expression entry with SHP-1 is given as “decreased SHP-1 protein expression”. Moreover, in the series on MDA-MB-231 xenografts (all treated mice, after approximately 6 months, control animals died or were sacrificed), the “health of treated mice” value is “remained healthy”. Besides, the tumor volume entry in the series with MDA-MB-231 xenografts (group 1: pRetro-oncolysin 1×10^6 viral particles plus weekly Doxycyclin 1 mg/kg) was “striking reduction in tumor volume”; with MDA-MB-231 xenografts (group 3: weekly injection of oncolysin protein 10 μg/kg), “striking reduction in tumor volume”; in [3] (50 μg/kg protein) it was “reduction in tumor volume”; in series [3] (500 μg/kg protein), “reduction in tumor volume”. Also, in series [1], the “apoptotic activity (induction of apoptosis)” value was “dramatically increase apoptotic activity”. The multinucleation result in series [2] is listed as “Multinucleation was observed only in induced cells”. The PI-3 kinase expression result in the series with PI-3 kinase was “increased PI-3 kinase expression”.
